Laboratory results reported in patent publication US20250011447A1 (EXCYTE BIOPHARMA, published 2025).

T1: BCMA-Fc fusion protein (Acrobiosystems, catalog number BC7-H5254) (human, UniProt Q02223 1-54, biotin cross-linked, 3 to 5 biotin molecules per molecule, where the biotinylated antigen is used (ELISA of Table 3); sites not stated)
T1 construct: Bought protein; also called BCMA antigen; BCMA-Fc antigen; not shown: human Fc of the bought fusion protein
T1 sequence (looked up): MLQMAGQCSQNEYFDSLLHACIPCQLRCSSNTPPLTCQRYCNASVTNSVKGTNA

T2: human BCMA on the cell membrane surface (H929 and RPMI8226 cells) (human, UniProt Q02223 1-184)
T2 construct: whole, on cells; also called BCMA antigen on the cell membrane surface; BCMA-expressing cell line H929
T2 sequence (looked up): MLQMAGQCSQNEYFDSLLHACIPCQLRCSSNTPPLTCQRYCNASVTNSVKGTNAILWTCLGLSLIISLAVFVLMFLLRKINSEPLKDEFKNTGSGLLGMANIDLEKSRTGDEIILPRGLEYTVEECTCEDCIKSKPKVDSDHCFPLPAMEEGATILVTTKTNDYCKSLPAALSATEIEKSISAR

B1: B10 parental antibody Fab (Fab, V domains shown)
VH: QVQLQQSGAEVKKPGSSVKVSCKASGGTFSSYAISWVRQAPGQGLEWMGGIIPIFGTANYAQKFQGRVTITADESTSTAYMELSSLRSEDTAVYYCARGWYFDLWGRGTLVTVSS
VL: LPVLTQPPSASGTPGQRVTISCSGSSSNIGGYSVNWYQQFPGTAPKLLIYRNNQRPSGVPDRFSGSKSGASASLAISGLQSEDEADYYCAAWDDSLIGYVFGTGTQLTVL
notes: Variable regions cloned into vector pUFL and secreted as Fab by E. coli BL21(DE3); also called Fab form of B10
B2: B10 scFv-Fc protein (B10 parental antibody) (Fc fusion)
scFv: QVQLQQSGAEVKKPGSSVKVSCKASGGTFSSYAISWVRQAPGQGLEWMGGIIPIFGTANYAQKFQGRVTITADESTSTAYMELSSLRSEDTAVYYCARGWYFDLWGRGTLVTVSSASTGGSSRSSSSGGGGSGGGGLPVLTQPPSASGTPGQRVTISCSGSSSNIGGYSVNWYQQFPGTAPKLLIYRNNQRPSGVPDRFSGSKSGASASLAISGLQSEDEADYYCAAWDDSLIGYVFGTGTQLTVL
notes: scFv gene fused with the Fc gene of human IgG4 (plasmid pFH-B10); also called clone B10; scFv-Fc protein of B10; not shown: Fc of human IgG4 from vector pFH
B3: B10.5 scFv-Fc (Fc fusion)
scFv: QVQLQQSGAEVKKPGSSVKVSCKASGGTFSKSAIHWVRQAPGQGLEWMGGVIPIFGTANYAQKFQGRVTITADESTSTAYMELSSLRSEDTAVYYCARGWYLDLWGRGTLVTVSSASTGGSSRSSSSGGGGSGGGGLPVLTQPPSASGTPGQRVTISCSGSSSNIGGYSVNWYQQFPGTAPKLLIYRNNQRPSGVPDRFSGSKSGASASLAISGLQSEDVADYYCAAWDDSLIGYVFGTGTQLTVL
notes: also called mutant B10.5; not shown: Fc (scFv-Fc)
B4: B10.3 scFv-Fc (Fc fusion)
scFv: QVQLQQSGAEVKKPGSSVKVSCKASGGTFSKSAIQWVRQAPGQGLEWMGGVIPIFGTANYAQKFQGRVTITADESTSTAYMELSSLRSEDTAVYYCARGWYLDLWGRGTLVTVSSASTGGSSRSSSSGGGGSGGGGLPVLTQPPSASGTPGQRVTISCSGSSNNIGGYSVNWYQQFPGTAPKLLIYRNNQRPSGVPDRFSGSKSGASASLAISGLQSEDEADYYCAAWDDSVIGWLFGTGTQLTVL
notes: also called mutant B10.3; not shown: Fc (scFv-Fc)
B5: B10.4 scFv-Fc (Fc fusion)
scFv: QVQLQQSGAEVKKPGSSVKVSCKASGGTFSKSAIMWVRQAPGQGLEWMGGVIPIFGTANYAQKFQGRVTITADESTSTAYMELSSLRSEDTAVYYCARGWYLDLWGRGTLVTVSSASTGGSSRSSSSGGGGSGGGGLPVLTQPPSASGTPGQRVTISCSGSSNNIGGYSVNWYQQFPGTAPKLLIYRNNQRPSGVPDRFSGSKSGASFSLAISGLQFEDEADYYCARWDDSVIGWVLGTGTQLTVL
notes: also called mutant B10.4; not shown: Fc (scFv-Fc)
B6: B10.9 scFv-Fc (Fc fusion)
scFv: QVQLQQSGAEVKKPGSSVKVSCKASGGTFSKSAIQWVRQAPGQGLEWMGGVIPIFGTANYAQKFQGRVTITADESTSTAYMELSSLRSEDTAVYYCARGWYLDLWGRGTLVTVSSASTGGSSRSSSSGGGGSGGGGLPVLTQPPSASGTPGQRVTISCSGSSNNIGGYSVNWYQQFPGTAPKLLIYRNNQRPSGVPDRFSGSKSGASASLAISGLQSEDEADYYCAAWDDSEIGWLFGTGTQLTVL
notes: also called mutant B10.9; not shown: Fc (scFv-Fc)

Columns and labels:
[1] = biological target: T1, BCMA-Fc fusion protein (Acrobiosystems, …); assay: ELISA, BCMA-Fc coated at 0.25 µg/ml, Fab from E. coli, HRP anti-human Fab
Protocol: The conditions of the enzyme-linked reaction were optimized through preliminary experiments, to allow the A450 absorption value of the binding of B10 parental antibody Fab to the antigen BCMA-Fc 3 times higher than the background signal. The BCMA-Fc antigen was coated at 0.25 μg/ml on the enzyme-linked plate one day in advance, and the secreted and expressed mutant Fab was added to the wells on the following day, with HRP-conjugated anti-human Fab as the second antibody, the substrate was colored, and A450 was read, to obtain clones corresponding to the wells with signals 1.5 times higher than the maximum value of the parental wells, and these clones were called hits. All hits of the light and heavy chain variable regions were collected, inducted to express and tested by ELISA to verify their affinity higher than the parental antibody. Sequence analysis of mutant regions of the plasmid of the re-positive clone was performed, to obtain the mutation information of CDR amino acids. The process was called primary screening. All mutation information in the CDR region that was beneficial to the improvement of affinity was obtained: mutation sites that improved affinity in the heavy chain variable region CDR are shown in Table 1, and those in the light chain variable region CDR are shown in Table 2.

[2] = biological target: T2, human BCMA on the cell membrane surface …; assay: flow cytometry on RPMI8226 cells, EC50 ratio (as the table labels it)
[3] = biological target: T2, human BCMA on the cell membrane surface …; assay: flow cytometry on RPMI8226 cells (as the text tells it; the table gives this value to J6); flow cytometry on RPMI8226 cells; value as the text of paragraph 107 assigns it
[4] = biological target: T2, human BCMA on the cell membrane surface …; assay: flow cytometry on RPMI8226 cells (as the table labels it; the text gives this value to J6)
[5] = biological target: T2, human BCMA on the cell membrane surface …; assay: flow cytometry on RPMI8226 cells, scFv-Fc
[6] = biological target: T2, human BCMA on the cell membrane surface …; assay: flow cytometry on H929 cells, scFv-Fc
[7] = biological target: T2, human BCMA on the cell membrane surface …; assay: flow cytometry on RPMI8226 cells
Description: (§1) In order to understand the apparent affinity of these antibodies to BCMA on the cell surface, the binding of B10 parental antibody and the finally obtained 4 mutants to BCMA-expressing cell line RPMI8226 were compared with J6 by flow cytometry (see Graph B of FIG. 4, Table 4).

[8] = biological target: T1, BCMA-Fc fusion protein (Acrobiosystems, …); assay: affinity worked out from the ELISA EC50 fold against J6 (taken as about 0.2 nM)
Protocol: (§2) After antibodies with different concentrations were coated on enzyme-linked plates, the biotinylated BCMA antigen, streptavidin-conjugated horseradish peroxidase (HRP) and chromogenic substrate were added step by step. The obtained signal-antibody gradient curve is shown in Graph A of FIG. 4, and the relative affinity change fold is shown in Table 3.

[9] = biological target: T2, human BCMA on the cell membrane surface …; assay: flow cytometry on RPMI8226 cells, EC50 ratio
Description: as §1

[10] = biological target: T1, BCMA-Fc fusion protein (Acrobiosystems, …); assay: ELISA EC50 relative to J6
Protocol: as §2

| Binder | binding result [1] | Fold increase relative to J6 [2] [fold] | EC50 [3] [µg/mL] | EC50 [4] [µg/mL] | percentage of binding [5] [%] | percentage of binding [6] [%] | EC50 [7] [µg/mL] | Kd [8] [nM] | Fold increase relative to J6 [9] [fold] | Fold of J6 [10] [fold] |
| --- | --- | --- | --- | --- | --- | --- | --- | --- | --- | --- |
| B1 | binds |  |  |  |  |  |  |  |  |  |
| B2 |  | 0.57 | 2.74 | 1.57 | 5.54 | 75.3 |  |  |  |  |
| B3 |  |  |  |  | 58.2 | 97.2 | 0.0406 | 0.27 | 67.5 | 1.35 |
| B4 |  |  |  |  | 54.9 | 98 | 0.0282 | 0.26 | 97.1 | 1.29 |
| B5 |  |  |  |  | 57.5 | 97.9 | 0.0343 | 0.31 | 79.9 | 1.55 |
| B6 |  |  |  |  | 42.9 | 91.6 | 0.0451 | 0.29 | 60.7 | 1.43 |
